Data from patent US20230235012A1 (ALPINE IMMUNE SCIENCES, published 2023).

T1: human ICOS, full-length, expressed on transfected Expi293 cells (human, UniProt Q9Y6W8 21-199)
T1 construct: whole, on cells
T1 sequence (looked up): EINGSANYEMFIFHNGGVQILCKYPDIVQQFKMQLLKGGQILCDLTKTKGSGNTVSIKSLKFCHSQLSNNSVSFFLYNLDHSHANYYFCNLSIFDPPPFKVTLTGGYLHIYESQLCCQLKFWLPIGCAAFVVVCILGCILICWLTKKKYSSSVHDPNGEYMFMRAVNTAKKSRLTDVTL


Legend:
[1] = molecular target: T2, human CD28, full-length, expressed on transfected Expi293 cells (human, UniProt P10747 19-220); test: flow cytometry, 100 nM, Expi293 cells with human CD28
T2 construct: whole, on cells

[2] = molecular target: T1, human ICOS, full-length, expressed on …; test: flow cytometry, 100 nM, Expi293 cells with human ICOS
[3] = molecular target: T3, human CTLA-4, full-length, expressed on transfected Expi293 cells (human, UniProt P16410 36-223); test: flow cytometry, 100 nM, Expi293 cells with human CTLA-4
T3 construct: whole, on cells
T3 sequence (P16410 36-223): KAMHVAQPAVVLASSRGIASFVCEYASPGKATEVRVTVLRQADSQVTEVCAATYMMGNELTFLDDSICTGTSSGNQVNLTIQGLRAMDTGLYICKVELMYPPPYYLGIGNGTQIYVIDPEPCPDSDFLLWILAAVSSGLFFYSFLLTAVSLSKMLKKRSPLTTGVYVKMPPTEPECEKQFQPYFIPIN

Binder	MFI [1] [MFI]	MFI ratio to WT (ΔWT) [1] [fold]	MFI [2] [MFI]	MFI ratio to WT (ΔWT) [2] [fold]	MFI [3] [MFI]	MFI ratio to WT (ΔWT) [3] [fold]
wild-type ICOSL IgV-Fc fusion (Fc fusion, also called WT ICOSL) DTQEKEVRAMVGSDVELSCACPEGSRFDLNDVYVYWQTSESKTVVTYHIPQNSSLENVDSRYRNRALMSPAGMLRGDFSLRLFNVTPQDEQKFHCLVLSQSLGFQEVLSVEVTLHVAANFSVGSGGGGSEPKSSDKTHTCPPCPAPEAEGAPSVFLFPPKPKDTLMISRTPEVTCVVVDVSHEDPEVKFNWYVDGVEVHNAKTKPREEQYNSTYRVVSVLTVLHQDWLNGKEYKCKVSNKALPAPIEKTISKAKGQPREPQVYTLPPSREEMTKNQVSLTCLVKGFYPSDIAVEWESNGQPENNYKTTPPVLDSDGSFFLYSKLTVDKSRWQQGNVFSCSVMHEALHNHYTQKSLSLSPG	22300	1	212000	1	330000	1
variant ICOSL IgV-Fc fusion N52G/Q100A (Fc fusion) DTQEKEVRAMVGSDVELSCACPEGSRFDLNDVYVYWQTSESKTVVTYHIPQGSSLENVDSRYRNRALMSPAGMLRGDFSLRLFNVTPQDEQKFHCLVLSASLGFQEVLSVEVTLHVAANFSVGSGGGGSEPKSSDKTHTCPPCPAPEAEGAPSVFLFPPKPKDTLMISRTPEVTCVVVDVSHEDPEVKFNWYVDGVEVHNAKTKPREEQYNSTYRVVSVLTVLHQDWLNGKEYKCKVSNKALPAPIEKTISKAKGQPREPQVYTLPPSREEMTKNQVSLTCLVKGFYPSDIAVEWESNGQPENNYKTTPPVLDSDGSFFLYSKLTVDKSRWQQGNVFSCSVMHEALHNHYTQKSLSLSPG	98700		303000			
variant ICOSL IgV-Fc fusion N52H/N57Y/Q100K (Fc fusion) DTQEKEVRAMVGSDVELSCACPEGSRFDLNDVYVYWQTSESKTVVTYHIPQHSSLEYVDSRYRNRALMSPAGMLRGDFSLRLFNVTPQDEQKFHCLVLSKSLGFQEVLSVEVTLHVAANFSVGSGGGGSEPKSSDKTHTCPPCPAPEAEGAPSVFLFPPKPKDTLMISRTPEVTCVVVDVSHEDPEVKFNWYVDGVEVHNAKTKPREEQYNSTYRVVSVLTVLHQDWLNGKEYKCKVSNKALPAPIEKTISKAKGQPREPQVYTLPPSREEMTKNQVSLTCLVKGFYPSDIAVEWESNGQPENNYKTTPPVLDSDGSFFLYSKLTVDKSRWQQGNVFSCSVMHEALHNHYTQKSLSLSPG	142000		214000			
variant ICOSL IgV-Fc fusion N52C/N57E/Q100S (Fc fusion) DTQEKEVRAMVGSDVELSCACPEGSRFDLNDVYVYWQTSESKTVVTYHIPQCSSLEEVDSRYRNRALMSPAGMLRGDFSLRLFNVTPQDEQKFHCLVLSSSLGFQEVLSVEVTLHVAANFSVGSGGGGSEPKSSDKTHTCPPCPAPEAEGAPSVFLFPPKPKDTLMISRTPEVTCVVVDVSHEDPEVKFNWYVDGVEVHNAKTKPREEQYNSTYRVVSVLTVLHQDWLNGKEYKCKVSNKALPAPIEKTISKAKGQPREPQVYTLPPSREEMTKNQVSLTCLVKGFYPSDIAVEWESNGQPENNYKTTPPVLDSDGSFFLYSKLTVDKSRWQQGNVFSCSVMHEALHNHYTQKSLSLSPG	13400	0.6	125000	0.59	10600	0.03
variant ICOSL IgV-Fc fusion N52V/N57L/Q100A (Fc fusion) DTQEKEVRAMVGSDVELSCACPEGSRFDLNDVYVYWQTSESKTVVTYHIPQVSSLELVDSRYRNRALMSPAGMLRGDFSLRLFNVTPQDEQKFHCLVLSASLGFQEVLSVEVTLHVAANFSVGSGGGGSEPKSSDKTHTCPPCPAPEAEGAPSVFLFPPKPKDTLMISRTPEVTCVVVDVSHEDPEVKFNWYVDGVEVHNAKTKPREEQYNSTYRVVSVLTVLHQDWLNGKEYKCKVSNKALPAPIEKTISKAKGQPREPQVYTLPPSREEMTKNQVSLTCLVKGFYPSDIAVEWESNGQPENNYKTTPPVLDSDGSFFLYSKLTVDKSRWQQGNVFSCSVMHEALHNHYTQKSLSLSPG	132000				252000	
variant ICOSL IgV-Fc fusion N52A/N57Y/Q100A (Fc fusion) DTQEKEVRAMVGSDVELSCACPEGSRFDLNDVYVYWQTSESKTVVTYHIPQASSLEYVDSRYRNRALMSPAGMLRGDFSLRLFNVTPQDEQKFHCLVLSASLGFQEVLSVEVTLHVAANFSVGSGGGGSEPKSSDKTHTCPPCPAPEAEGAPSVFLFPPKPKDTLMISRTPEVTCVVVDVSHEDPEVKFNWYVDGVEVHNAKTKPREEQYNSTYRVVSVLTVLHQDWLNGKEYKCKVSNKALPAPIEKTISKAKGQPREPQVYTLPPSREEMTKNQVSLTCLVKGFYPSDIAVEWESNGQPENNYKTTPPVLDSDGSFFLYSKLTVDKSRWQQGNVFSCSVMHEALHNHYTQKSLSLSPG	147000	6.6	261000	1.23	320000	0.97

Next, values leading:

MFI [1] [MFI]	MFI ratio to WT (ΔWT) [1] [fold]	MFI [2] [MFI]	MFI ratio to WT (ΔWT) [2] [fold]	MFI [3] [MFI]	MFI ratio to WT (ΔWT) [3] [fold]	Binder
69100	3.1	332000	1.57	52500	0.16	variant ICOSL IgV-Fc fusion N52G/N57V (Fc fusion) DTQEKEVRAMVGSDVELSCACPEGSRFDLNDVYVYWQTSESKTVVTYHIPQGSSLEVVDSRYRNRALMSPAGMLRGDFSLRLFNVTPQDEQKFHCLVLSQSLGFQEVLSVEVTLHVAANFSVGSGGGGSEPKSSDKTHTCPPCPAPEAEGAPSVFLFPPKPKDTLMISRTPEVTCVVVDVSHEDPEVKFNWYVDGVEVHNAKTKPREEQYNSTYRVVSVLTVLHQDWLNGKEYKCKVSNKALPAPIEKTISKAKGQPREPQVYTLPPSREEMTKNQVSLTCLVKGFYPSDIAVEWESNGQPENNYKTTPPVLDSDGSFFLYSKLTVDKSRWQQGNVFSCSVMHEALHNHYTQKSLSLSPG
54800	2.5	257000	1.21	151000	0.46	variant ICOSL IgV-Fc fusion N52L/N57V (Fc fusion) DTQEKEVRAMVGSDVELSCACPEGSRFDLNDVYVYWQTSESKTVVTYHIPQLSSLEVVDSRYRNRALMSPAGMLRGDFSLRLFNVTPQDEQKFHCLVLSQSLGFQEVLSVEVTLHVAANFSVGSGGGGSEPKSSDKTHTCPPCPAPEAEGAPSVFLFPPKPKDTLMISRTPEVTCVVVDVSHEDPEVKFNWYVDGVEVHNAKTKPREEQYNSTYRVVSVLTVLHQDWLNGKEYKCKVSNKALPAPIEKTISKAKGQPREPQVYTLPPSREEMTKNQVSLTCLVKGFYPSDIAVEWESNGQPENNYKTTPPVLDSDGSFFLYSKLTVDKSRWQQGNVFSCSVMHEALHNHYTQKSLSLSPG
157000	7	242000	1.14	255000	0.77	variant ICOSL IgV-Fc fusion N52A/N57F/Q100S (Fc fusion) DTQEKEVRAMVGSDVELSCACPEGSRFDLNDVYVYWQTSESKTVVTYHIPQASSLEFVDSRYRNRALMSPAGMLRGDFSLRLFNVTPQDEQKFHCLVLSSSLGFQEVLSVEVTLHVAANFSVGSGGGGSEPKSSDKTHTCPPCPAPEAEGAPSVFLFPPKPKDTLMISRTPEVTCVVVDVSHEDPEVKFNWYVDGVEVHNAKTKPREEQYNSTYRVVSVLTVLHQDWLNGKEYKCKVSNKALPAPIEKTISKAKGQPREPQVYTLPPSREEMTKNQVSLTCLVKGFYPSDIAVEWESNGQPENNYKTTPPVLDSDGSFFLYSKLTVDKSRWQQGNVFSCSVMHEALHNHYTQKSLSLSPG
141000	6.3	199000	0.94	233000	0.71	variant ICOSL IgV-Fc fusion N52K/N57Y/Q100R (Fc fusion) DTQEKEVRAMVGSDVELSCACPEGSRFDLNDVYVYWQTSESKTVVTYHIPQKSSLEYVDSRYRNRALMSPAGMLRGDFSLRLFNVTPQDEQKFHCLVLSRSLGFQEVLSVEVTLHVAANFSVGSGGGGSEPKSSDKTHTCPPCPAPEAEGAPSVFLFPPKPKDTLMISRTPEVTCVVVDVSHEDPEVKFNWYVDGVEVHNAKTKPREEQYNSTYRVVSVLTVLHQDWLNGKEYKCKVSNKALPAPIEKTISKAKGQPREPQVYTLPPSREEMTKNQVSLTCLVKGFYPSDIAVEWESNGQPENNYKTTPPVLDSDGSFFLYSKLTVDKSRWQQGNVFSCSVMHEALHNHYTQKSLSLSPG
23700	1.1	260000	1.23	14700	0.04	variant ICOSL IgV-Fc fusion N52G/N57V/Q100G (Fc fusion) DTQEKEVRAMVGSDVELSCACPEGSRFDLNDVYVYWQTSESKTVVTYHIPQGSSLEVVDSRYRNRALMSPAGMLRGDFSLRLFNVTPQDEQKFHCLVLSGSLGFQEVLSVEVTLHVAANFSVGSGGGGSEPKSSDKTHTCPPCPAPEAEGAPSVFLFPPKPKDTLMISRTPEVTCVVVDVSHEDPEVKFNWYVDGVEVHNAKTKPREEQYNSTYRVVSVLTVLHQDWLNGKEYKCKVSNKALPAPIEKTISKAKGQPREPQVYTLPPSREEMTKNQVSLTCLVKGFYPSDIAVEWESNGQPENNYKTTPPVLDSDGSFFLYSKLTVDKSRWQQGNVFSCSVMHEALHNHYTQKSLSLSPG
141000	6.3	250000	1.18	353000	1.07	variant ICOSL IgV-Fc fusion N52L/N57H/Q100R (Fc fusion) DTQEKEVRAMVGSDVELSCACPEGSRFDLNDVYVYWQTSESKTVVTYHIPQLSSLEHVDSRYRNRALMSPAGMLRGDFSLRLFNVTPQDEQKFHCLVLSRSLGFQEVLSVEVTLHVAANFSVGSGGGGSEPKSSDKTHTCPPCPAPEAEGAPSVFLFPPKPKDTLMISRTPEVTCVVVDVSHEDPEVKFNWYVDGVEVHNAKTKPREEQYNSTYRVVSVLTVLHQDWLNGKEYKCKVSNKALPAPIEKTISKAKGQPREPQVYTLPPSREEMTKNQVSLTCLVKGFYPSDIAVEWESNGQPENNYKTTPPVLDSDGSFFLYSKLTVDKSRWQQGNVFSCSVMHEALHNHYTQKSLSLSPG
